# Measured values published in patent US6492116, “Assay for identifying inhibitors of the interaction between proteins p53 and dm2” (Cancer Research Campain Technology Ltd.).
# B1: p53 consensus site oligonucleotide I/II (dsDNA)
# DNA 1: AGCTTAGACATGCCTAGACATGCCTA
# DNA 2: AGCTTAGGCATGTCTAGGCATGTCTA
# Molecular target: p53D30 (human p53 residues 1-362) (Homo sapiens, UniProt P04637 SEQ:1-362)
# Assay: EMSA; 50 mM Tris-HCl, 50 mM NaCl, 5% glycerol, 0.1% Triton X-100, 10 mM DTT, 50 ug/ml poly(dI-dC), pH 7.6, 22 C; monoclonal antibodies included as mentioned; gel result not shown in the text
# Settings: chain copies: 4; label: 33P 5' end; HindIII-compatible 5' overhangs
# Method: A 20 μl reaction volume containing 50 mM Tris. HCI, 50 mM NaCI, 5% (v/v) glycerol, 0.1% (v/v) Triton X-100, 10 mM DTT and 50 μg/ml polydeoxyinosinic-deoxycytidylic acid–pH=7.6 (binding buffer) are incubated for 30 min at 22° C. in the presence of the indicated amounts of p53D30, of radiolabelled oligonucleotides and of the mentioned monoclonal antibodies. Reactions are loaded onto a native 4% polyacrylamide gel containing 0.5×Tris.HCI–boric acid–pH=8.0 which had undergone pre-electrophoresis at 200 V for 45 min at 4 ° C. Electrophoresis is continued at 200 V from 90 to 120 min at 4° C. Gels are dried prior exposure to X-ray film (Amersham Hyperfilm-MP).
# Chain of p53D30 (human p53 residues 1-362) (P04637 1-362): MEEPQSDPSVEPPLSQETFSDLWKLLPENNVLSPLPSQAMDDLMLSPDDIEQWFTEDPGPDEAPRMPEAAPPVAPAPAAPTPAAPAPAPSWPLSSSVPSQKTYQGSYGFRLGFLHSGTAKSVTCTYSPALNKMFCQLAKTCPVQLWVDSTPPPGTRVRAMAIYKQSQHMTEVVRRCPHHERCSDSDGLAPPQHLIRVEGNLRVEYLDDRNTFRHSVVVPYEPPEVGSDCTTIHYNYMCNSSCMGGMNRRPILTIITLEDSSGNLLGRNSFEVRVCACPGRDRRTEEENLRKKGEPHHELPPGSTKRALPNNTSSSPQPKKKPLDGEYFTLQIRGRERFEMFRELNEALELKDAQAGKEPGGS
binder,measurement,value
B1,binding result,binds
